Biological target: HLA-A*02:01 (Homo sapiens, UniProt P04439, D140Y/D185E/D98H/E176V/E277Q/G131W/G231S/I119V/I121R/I166T/I218V/L300P/L318F/N151K/N90K/P208A/P217A/Q86G/Q94H/R138H/R169H/T345S)
Assay: MHC binding assay: UV-ligand exchange with β2m ELISA (peptide exchange yield)
Details: MHC class I binding score; binding to HLA-A*02:01 ranged by peptide exchange yield (UV-ligand exchange, β2m ELISA)
Outline: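 UV-cleavable peptide in HLA monomers exchanged for test peptide by UV irradiation; exchange yield measured by streptavidin-capture ELISA with HRP anti-β2m (TMB, 450 nm) on 100-fold diluted complexes. Quantified against refolded HLA-A*02:01/MLA-001 standards (15-500 ng/ml).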

Peptide Exchange	Substance
″+++″ (≥50 = +++)	321 (RLLEFELAQL; listed as Homo sapiens) [compound 321]
″+++″ (≥50 = +++)	324 (SLYSALQQA; listed as Homo sapiens) [compound 324]
″+++″ (≥50 = +++)	325 (TLENGVPCV; listed as Homo sapiens) [compound 325]
″++++″ (≥75% = ++++)	326 (VLAFLVHEL; listed as Homo sapiens) [compound 326]
″++++″ (≥75% = ++++)	327 (VLIKWFPEV; listed as Homo sapiens) [compound 327]
″++++″ (≥75% = ++++)	328 (VLLPQETAEIHL; listed as Homo sapiens) [compound 328]
″+++″ (≥50 = +++)	330 (VLMWEIYSL; listed as Homo sapiens) [compound 330]
″+++″ (≥50 = +++)	331 (VLWELAHLPTL; listed as Homo sapiens) [compound 331]
″+++″ (≥50 = +++)	333 (VTLEFPQLIRV; listed as Homo sapiens) [compound 333]
″+++″ (≥50 = +++)	334 (YLLEEKIASL; listed as Homo sapiens) [compound 334]
″+++″ (≥50 = +++)	335 (YLYQEQYFI; listed as Homo sapiens) [compound 335]
″++++″ (≥75% = ++++)	336 (YMAVTTQEV; listed as Homo sapiens) [compound 336]
″++″ (≥20% = ++)	337 (YMYEKESEL; listed as Homo sapiens) [compound 337]
″++++″ (≥75% = ++++)	338 (FLDMTNWNL; listed as Homo sapiens) [compound 338]
″+++″ (≥50 = +++)	339 (GLWGTVVNI; listed as Homo sapiens) [compound 339]
″++++″ (≥75% = ++++)	340 (KLLEEICNL; listed as Homo sapiens) [compound 340]
″+++″ (≥50 = +++)	341 (LLAELPASVHA; listed as Homo sapiens) [compound 341]
″+++″ (≥50 = +++)	342 (SLITPLQAV; listed as Homo sapiens) [compound 342]
″+++″ (≥50 = +++)	344 (VLAFENPQV; listed as Homo sapiens) [compound 344]

Peptide Exchange	Substance
″+++″ (≥50 = +++)	345 (YLIEPDVELQRI; listed as Homo sapiens) [compound 345]
″+++″ (≥50 = +++)	346 (VLVQVSPSL; listed as Homo sapiens) [compound 346]
″+++″ (≥50 = +++)	347 (YLGPVSPSL; listed as Homo sapiens) [compound 347]
″+++″ (≥50 = +++)	348 (ALAKPPVVSV; listed as Homo sapiens) [compound 348]
″+++″ (≥50 = +++)	349 (ALATHILSL; listed as Homo sapiens) [compound 349]
″+++″ (≥50 = +++)	350 (ALEDRVWEL; listed as Homo sapiens) [compound 350]
″+++″ (≥50 = +++)	351 (ALSEKLARL; listed as Homo sapiens) [compound 351]
″+++″ (≥50 = +++)	352 (ALVFELHYV; listed as Homo sapiens) [compound 352]
″++″ (≥20% = ++)	353 (ATPMPTPSV; listed as Homo sapiens) [compound 353]
″+++″ (≥50 = +++)	354 (FIMDDPAGNSYL; listed as Homo sapiens) [compound 354]
″+++″ (≥50 = +++)	355 (FIWPMLIHI; listed as Homo sapiens) [compound 355]
″++″ (≥20% = ++)	356 (FLHDHQAEL; listed as Homo sapiens) [compound 356]
″+++″ (≥50 = +++)	357 (FLIQEIKTL; listed as Homo sapiens) [compound 357]
″+++″ (≥50 = +++)	358 (FLTDYLNDL; listed as Homo sapiens) [compound 358]
″+++″ (≥50 = +++)	359 (FMQDPMEVFV; listed as Homo sapiens) [compound 359]
″+++″ (≥50 = +++)	360 (HLIDTNKIQL; listed as Homo sapiens) [compound 360]
″+++″ (≥50 = +++)	361 (ILQEFESKL; listed as Homo sapiens) [compound 361]
″+++″ (≥50 = +++)	362 (ILTELGGFEV; listed as Homo sapiens) [compound 362]
″+++″ (≥50 = +++)	363 (ITTEVVNELYV; listed as Homo sapiens) [compound 363]

Peptide Exchange	Substance
″+++″ (≥50 = +++)	364 (KMDWIFHTI; listed as Homo sapiens) [compound 364]
″+++″ (≥50 = +++)	365 (LISPLLLPV; listed as Homo sapiens) [compound 365]
″+++″ (≥50 = +++)	367 (NLWSLVAKV; listed as Homo sapiens) [compound 367]
″+++″ (≥50 = +++)	369 (RLLDLENSLLGL; listed as Homo sapiens) [compound 369]
″+++″ (≥50 = +++)	370 (SIFASPESV; listed as Homo sapiens) [compound 370]
″+++″ (≥50 = +++)	371 (SLADDSVLERL; listed as Homo sapiens) [compound 371]
″+++″ (≥50 = +++)	372 (SLFGPLPGPGPALV; listed as Homo sapiens) [compound 372]
″++″ (≥20% = ++)	373 (TLLADQGEIRV; listed as Homo sapiens) [compound 373]
″+++″ (≥50 = +++)	374 (VLSVITEEL; listed as Homo sapiens) [compound 374]
″+++″ (≥50 = +++)	375 (VLWFKPVEL; listed as Homo sapiens) [compound 375]
″+++″ (≥50 = +++)	376 (VLYNQRVEEI; listed as Homo sapiens) [compound 376]
″+++″ (≥50 = +++)	377 (VVDGTCVAV; listed as Homo sapiens) [compound 377]
″+++″ (≥50 = +++)	378 (YILGKFFAL; listed as Homo sapiens) [compound 378]
″+++″ (≥50 = +++)	379 (YLAELVTPIL; listed as Homo sapiens) [compound 379]
″+++″ (≥50 = +++)	381 (YLLEENKIKL; listed as Homo sapiens) [compound 381]
″++++″ (≥75% = ++++)	382 (YLLPLLQRL; listed as Homo sapiens) [compound 382]
″++++″ (≥75% = ++++)	383 (YLLREWVNL; listed as Homo sapiens) [compound 383]
″++++″ (≥75% = ++++)	384 (YMIGSEVGNYL; listed as Homo sapiens) [compound 384]
″+++″ (≥50 = +++)	385 (YTIPLAIKL; listed as Homo sapiens) [compound 385]

Reference: US10117916B2, “Peptides and combination of peptides for use in immunotherapy against CLL and other cancers” (immatics biotechnologies GmbH, priority 2015, dated 2018)
